Source: patent publication US20190202901A1 (PIERRE FABRE MEDICAMENT, published 2019)
Changes are numbered by the printed parent chain.

B1: c213B10 (antibody, human IgG1, kappa)
heavy: not shown
light: DIQMTQTTSSLSASLGDRVTISCRASQDISKYLNWYQQQPDGTIKLLIYYTSRLHSGVPSRFSGRGSGTDYSLTITNLEQEDIATYFCQQGSALPYTFGGGTKLEIKRTVAAPSVFIFPPSDEQLKSGTASVVCLLNNFYPREAKVQWKVDNALQSGNSQESVTEQDSKDSTYSLSSTLTLSKADYEKHKVYACEVTHQGLSSPVTKSFNRGEC
notes: also called chimeric 213B10
B2: c208F2 (antibody, human IgG1, kappa, V domains shown)
VH: QVQLQQSGPELVKPGASVKMSCKASGYTFTSYYIYWVKQRPGQGLEWLGWIWPGDGSTKYNEKFKDKTTLTADKSSNTAYMFLSSLTSEDSAVYFCASPMITPNYAMDYWGQGASVTVSS
VL: DIQMTQTTSSLSASLGDRVTISCRASQDISKYLNWYQQQPDGTIKLLIYYTSRLHSGVPSRFSGRGSGTDYSLTISNVEQEDIATYFCQQGSTLPYTFGGGTKLEIKR
notes: also called chimeric 208F2; chimeric form of the 208F2 second IGF-1R antibody
B3: m212A11 (murine 212A11, hybridoma CNCM I-4773) (antibody, V domains shown)
VH: B2 VH with Y35H, L48I, D66G, N77S
VL: DIQMTQTTSSLSASLGDRVTISCRASQDINKYLNWYQQQPDGTVKLLIYYTSRLHSGVPSRFSGRGSGTDYSLTISNLEQEDIATYFCQQGSTLPYTFGGGTKLEIK
B4: c212A11 (antibody, human IgG1, kappa, V domains shown)
VH: B2 VH with Y35H, L48I, D66G, N77S
VL: B2 VL with S30N, I44V, V78L
notes: also called chimeric 212A11
B5: m208F2 (murine 208F2, hybridoma CNCM I-4757) (antibody, V domains shown)
VH: B2 VH
VL: B3 VL with N30S, V44I, L78V
B6: c219D6 (antibody, human IgG1, kappa, V domains shown)
VH: B2 VH with A16D, T28S, Y33F, Y35H, L48I, D66G, A72T, N77S, S84N
VL: B2 VL with I44V, V78L
notes: also called chimeric 219D6
B7: m213B10 (murine 213B10, hybridoma CNCM I-4774) (antibody, V domains shown)
VH: B2 VH with P9S, Y35H, L48I, K63R, D66G, N77S
VL: B3 VL with N30S, V44I, S76T, T93A
B8: m219D6 (murine 219D6, hybridoma CNCM I-4736) (antibody, V domains shown)
VH: B2 VH with A16D, T28S, Y33F, Y35H, L48I, D66G, A72T, N77S, S84N
VL: B3 VL with N30S
B9: m214F8 (murine 214F8, hybridoma CNCM I-4775) (antibody, V domains shown)
VH: B2 VH with P9S, M20L, Y35H, L48I, K63R, D66G, N77S
VL: B3 VL with I21F, N30S, V44I, S76T, T93A
B10: c214F8 (antibody, human IgG1, kappa)
heavy: not shown
light: B1 light with I21F
notes: also called chimeric 214F8
B11: 810D12 (antibody, V domains shown)
VH: EVQLQQSGPELVKPGASVKMSCKASGHTFTSYMLHWVKQKPGQGLEWLGFINPYNDVTKYNENFKGKATLTSDKSSSTAYMELNSLTSEDSAVYFCVTTAYYGNGRYFDVWGAGTTVTVSS
VL: DIQMTQTTSSLSASLGDRVTISCRASQDITNYLTWYQQKPDGTVKVLIYYTSRLYSGVPSRFSGSGSGSDYSLTINNLEQEDIATYFCQQGYSLPWTFGGGTKLEIK
notes: Murine monoclonal antibody from hybridoma CNCM I-4893; also called m810D12; I-4893
B12: 816C12 (antibody, V domains shown)
VH: EVQLQQSGPELVKPGASVKMSCKASGHTFTSYVLHWMKRKPGQGLEWIGYINPHNDVTKYNENFKGKATLTSDKYSSTVYMEVSSLTSEDSAVYYCVSTAYYGNGRYFDVWGAGTTVTVSS
VL: B3 VL with K31N, Q39K, P59S, R65S, S92N, Y96W
notes: Murine monoclonal antibody from hybridoma CNCM I-4894; also called m816C12; I-4894

molecular target: T1, human IGF-1R, native, on cells (MCF-7, hIGF-1R transfected cells, tumor sections, primary normal cells) (human, UniProt P08069 31-1367); test: cell-based or functional assay

| Binder | phosphorylation of hIGF-1R, % of phosphorylation induced by IGF-1 (MCF-7 cells, 10 µg/ml) [%] | decrease of IGF1-induced phosphorylation of hIGF-1R (MCF-7 cells) [%] |
| --- | --- | --- |
| B1 | < 10 |  |
| B2 | < 10 |  |
| B3 |  | 80 |
| B4 | < 10 |  |
| B5 |  | 80 |
| B6 | < 10 |  |
| B7 |  | 80 |
| B8 |  | 80 |
| B9 |  | 80 |
| B10 | < 10 |  |

molecular target: T1, human IGF-1R, native, on cells (MCF-7, …); test: cell-based or functional assay; remark: another data set of the same source

| Binder | ΔMFI (MCF-7, 10 µg/ml, 4 h) [MFI] |
| --- | --- |
| B1 | 369 |
| B2 | 288 |
| B4 | 322 |
| B6 | 353 |
| B10 | 403 |

molecular target: T1, human IGF-1R, native, on cells (MCF-7, …); test: cell-based or functional assay; remark: another data set of the same source

| Binder | % internalization (MCF-7, 10 µg/ml, 4 h) [%] | ΔMFI (MCF-7, 10 µg/ml, 4 h) [MFI] |
| --- | --- | --- |
| B2 | 82 | 278 |
| B5 | 88 | 294 |

molecular target: T2, soluble recombinant human IGF-1R hetero-tetramer with C-terminal 10-His tag (R&D Systems 305-GR-50) (human, UniProt P08069 31-736; P08069 741-932); test: SPR Biacore X100, His-captured recombinant human IGF-1R
T2 construct: domain: alpha chain;domain: extracellular domain of the beta chain; Captured on an anti-His antibody chip; also called recombinant soluble human-IGF-1R; h-IGF-1R
Description: (§1) The recognition experiments were run on a Biacore X100 device using a CM5 sensor chip activated by an anti-Tag His antibody (His capture kit GE Healthcare catalogue number 28-9950-56). More than 11000 RU of antibodies are chemically grafted on the carboxymethyldextan matrix using the amine kit chemistry. The experiments were carried out at 25° C. with a flow rate of 30 μl/min using the HBS-EP buffer (GE Healthcare) as the running and sample dilution buffer.
(§2) A solution of a soluble recombinant version of the IGF-1R hetero-tetramere composed of 2a chains and the extracellular domains of 2β chains expressed with an additional C-terminal 10-His tag, based either on the sequence of the human (R&D Systems catalogue number 305-GR-50) or of the one of cynomolgus (produced in house) was injected 1 minute on the second flowcell at a dilution defined to capture around 160 RU of antigen. […] At the end of the fifth injection the running buffer was passed in order to define the dissociation rate.
(§3) The resulting sensorgrams were analysed using the Biaevaluation software with a 1:1 model. […] The quality of the fitting was assessed by a Chi2/Rmax ratio lower than 0.05 RU.

| Binder | Kd [nM] |
| --- | --- |
| B2 | ~0.2 |

molecular target: monkey IGF-1R on COS-7 cells (monkey (African green monkey)); test: cell-based or functional assay

| Binder | % internalisation (monkey IGF-1R) [%] | ΔMFI (monkey IGF-1R internalization) [MFI] |
| --- | --- | --- |
| B1 | 73 | 101 |
| B2 | 67 | 52 |
| B3 | 73 | 83 |
| B4 | 75 | 98 |
| B5 | 74 | 53 |
| B6 | 74 | 102 |
| B7 | 74 | 84 |
| B8 | 71 | 80 |
| B9 | 71 | 76 |
| B10 | 72 | 98 |

molecular target: T1, human IGF-1R, native, on cells (MCF-7, …); test: cell-based or functional assay; remark: another data set of the same source

| Binder | MFI 37°C (MCF7 internalisation assay) [MFI] |
| --- | --- |
| B5 | 94 |
| B7 | 115 |
| B9 | 111 |

molecular target: T2, soluble recombinant human IGF-1R …; test: SPR Biacore X100, single cycle kinetics, His-captured human IGF-1R (about 160 RU), 1:1 model
Description: as §1, §2, §3

| Binder | Kd [nM] |
| --- | --- |
| B2 | 0.23 |

molecular target: T2, soluble recombinant human IGF-1R …; test: SPR Biacore X100, Ln(2)/koff
Description: (§4) The dissociation constants (KD) of the binding of the antibodies on a recombinant soluble human-IGF-1R were defined by the ratio between the dissociation rate (koff) and the association rate (kₒₙ). The kinetic experiments were run on a Biacore X100 device using a CM5 sensor chip activated by a mouse anti-Tag His monoclobnal antibody. Around 12000 RU of antibodies are chemically grafted on the carboxymethyldextan matrix using the amine kit chemistry.
(§5) The experiments were carried out at 25° C. with a flow rate of 30 μl/min using the HBS-EP+ buffer (GE Healthcare) as the running and sample dilution buffer.
The single cycle kinetic scheme was used to define the kinetic parameters of the binding of the anti-IGF-1R antibodies on a soluble recombinant human IGF-1R captured by its two C-terminal 10 Histidine-tag. [0637] 1—A solution of a soluble recombinant version of the human IGF-1R hetero-tetramere: 2a chains and the extracellular domains of 2β chains expressed with an additional C-terminal 10-His tag (R&D Systems catalogue number 305-GR-50) was injected during one minute on the second flowcell at a concentration of 10 μg/ml. […] [0638] 2—After the capture phase, either the running buffer was injected 5 times (90 s each injection) or a growing range of 5 concentrations of one of the six antibodies was injected (90 s each injection) on both flowcells. […]

| Binder | half-life of the complex [h] |
| --- | --- |
| B2 | 2 to 3 |

molecular target: T3, recombinant human Insulin Receptor protein (R&D Systems, Cat 1544-IR/CF) (human, UniProt P06213-2 28-944); test: direct ELISA, coated rhIR
T3 construct: Bought protein coated on ELISA plates; also called rhIR; rh Insulin R
T3 sequence (P06213 other isoform, or with tags, fused parts or gaps limits assumed): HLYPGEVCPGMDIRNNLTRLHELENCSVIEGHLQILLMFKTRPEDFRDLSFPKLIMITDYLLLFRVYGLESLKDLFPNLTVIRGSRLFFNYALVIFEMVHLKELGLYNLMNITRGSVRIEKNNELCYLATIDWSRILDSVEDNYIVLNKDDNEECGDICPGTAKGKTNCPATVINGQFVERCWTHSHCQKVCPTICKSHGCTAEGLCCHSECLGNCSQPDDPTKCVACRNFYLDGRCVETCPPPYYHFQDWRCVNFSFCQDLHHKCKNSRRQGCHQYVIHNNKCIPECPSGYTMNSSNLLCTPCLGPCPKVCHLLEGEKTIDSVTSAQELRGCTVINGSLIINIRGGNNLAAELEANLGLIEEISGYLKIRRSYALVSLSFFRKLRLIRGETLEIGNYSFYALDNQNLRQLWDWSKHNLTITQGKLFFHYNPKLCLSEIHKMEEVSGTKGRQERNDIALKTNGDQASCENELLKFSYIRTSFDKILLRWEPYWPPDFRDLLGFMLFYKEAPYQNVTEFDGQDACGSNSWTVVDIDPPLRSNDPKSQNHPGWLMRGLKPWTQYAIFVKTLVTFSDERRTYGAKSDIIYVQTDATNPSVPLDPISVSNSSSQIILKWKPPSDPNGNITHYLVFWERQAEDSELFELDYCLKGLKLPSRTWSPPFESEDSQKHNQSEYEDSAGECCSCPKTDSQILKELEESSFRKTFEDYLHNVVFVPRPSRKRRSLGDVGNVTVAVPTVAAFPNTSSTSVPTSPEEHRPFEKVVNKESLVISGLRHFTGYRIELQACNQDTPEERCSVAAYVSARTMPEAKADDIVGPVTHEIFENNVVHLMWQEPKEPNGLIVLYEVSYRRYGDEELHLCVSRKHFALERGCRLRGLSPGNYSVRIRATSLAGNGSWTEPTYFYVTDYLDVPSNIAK
Description: In all direct ELISAs, proteins of interest were immobilized (1 μg/ml) to the bottom of each well. After saturation, hybridoma supernatants were added to the wells. After a 1-hour incubation period and a washing step, a solution of goat anti-mouse IgG—HRP labelled polyclonal antibody was used for detection, prior to the addition of the TMB substrate. The reaction was stopped with a 1M H₂SO₄ solution before reading the OD with a spectrophotometer at a 450 nm wavelength.

| Binder | binding result |
| --- | --- |
| B11 | no binding (tested: 5 µg/ml) |
| B12 | no binding (tested: 5 µg/ml) |

molecular target: T4, soluble recombinant cynomolgus IGF-1R hetero-tetramer with C-terminal 10-His tag (produced in house) (cynomolgus monkey); test: SPR Biacore X100, His-captured recombinant cynomolgus IGF-1R
T4 construct: domain: alpha chain;domain: extracellular domain of the beta chain; Produced in house; also called Macaca IGF-1R; soluble monkey IGF-1R ECD
Description: as §1, §2, §3

| Binder | Kd [nM] |
| --- | --- |
| B2 | ~0.2 |

molecular target: T2, soluble recombinant human IGF-1R …; test: SPR Biacore X100, His-captured soluble h-IGF-1R (about 600 RU), mean of 4 experiments
Description: as §4, §5
The single cycle kinetic scheme was used to define the kinetic parameters of the binding of the anti-IGF-1R antibodies on a soluble recombinant human IGF-1R captured by its two C-terminal 10 Histidine-tag. [0637] 1—A solution of a soluble recombinant version of the human IGF-1R hetero-tetramere: 2a chains and the extracellular domains of 2β chains expressed with an additional C-terminal 10-His tag (R&D Systems catalogue number 305-GR-50) was injected during one minute on the second flowcell at a concentration of 10 μg/ml. […] [0638] 2—After the capture phase, either the running buffer was injected 5 times (90 s each injection) or a growing range of 5 concentrations of one of the six antibodies was injected (90 s each injection) on both flowcells. At the end of the fifth injection the running buffer was passed during 5 minutes in order to define the dissociation rate. [0639] 3—The surface was then generated with an injection of a 10 mM Glycine, HCl pH 1.5 buffer during 45 s.

| Binder | Kd [nM] |
| --- | --- |
| B1 | ~0.03 |
| B2 | ~0.075 |
| B4 | ~0.03 |
| B6 | ~0.03 |
| B10 | ~0.03 |
